Key:
[1] = target: T1, Ara h 2 (Arachis hypogaea allergen 2) (Arachis hypogaea, UniProt Q6PSU2 22-172); experiment: ELISA, antibody titrated on coated Ara h 2
T1 construct: Peanut allergen; also called nAra h 2; natural Ara h 2
T1 sequence: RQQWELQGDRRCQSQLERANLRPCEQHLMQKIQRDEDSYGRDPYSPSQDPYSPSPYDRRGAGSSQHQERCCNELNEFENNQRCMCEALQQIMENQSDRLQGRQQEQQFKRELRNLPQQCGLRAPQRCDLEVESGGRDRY
Protocol: (§1) Monoclonal antibodies 2F8, 7G6, 17H9 and 15E3 were tested for their specificity against the major peanut allergens Ara h 1, 2, 3, and 6 by ELISA (enzyme linked immunosorbent assay). Briefly, ELISA plates were coated with respective Ara h proteins (Arah1: 0.5 ug/ml, Arah2: 0.01 ug/ml, Arah3: 0.1 ug/ml, Arah6: 0.05 ug/ml) overnight at 4° C. Afterwards, plates were blocked with BSA (2% in PBS) for 1 hour at room temperature. Antibody titration series starting from 3 ug/ml was prepared, added to the single ELISA plate wells and incubated for 2 h at room temperature. The read-out was performed by adding anti-hu-IgG-HRP (anti-human-IgG horseradish peroxidase; Jackson ImmunoResearch, West Grove, PA, USA) for 1 h at room temperature. Tetramethylbenzidine substrate solution (TMB, Sigma-Aldrich Chemie GmbH, Buchs, Switzerland) was added, then after 5 minutes of hydrolysis time, the reaction was stopped by the addition of 1 M H₂SO₄ and the absorbances were read at 450 nm.

[2] = target: T2, Ara h 3 (Arachis hypogaea allergen 3) (Arachis hypogaea); experiment: ELISA, antibody titrated on coated Ara h 3
T2 construct: Peanut allergen; also called Ara h 3.0101; nAra h 3
T2 chain: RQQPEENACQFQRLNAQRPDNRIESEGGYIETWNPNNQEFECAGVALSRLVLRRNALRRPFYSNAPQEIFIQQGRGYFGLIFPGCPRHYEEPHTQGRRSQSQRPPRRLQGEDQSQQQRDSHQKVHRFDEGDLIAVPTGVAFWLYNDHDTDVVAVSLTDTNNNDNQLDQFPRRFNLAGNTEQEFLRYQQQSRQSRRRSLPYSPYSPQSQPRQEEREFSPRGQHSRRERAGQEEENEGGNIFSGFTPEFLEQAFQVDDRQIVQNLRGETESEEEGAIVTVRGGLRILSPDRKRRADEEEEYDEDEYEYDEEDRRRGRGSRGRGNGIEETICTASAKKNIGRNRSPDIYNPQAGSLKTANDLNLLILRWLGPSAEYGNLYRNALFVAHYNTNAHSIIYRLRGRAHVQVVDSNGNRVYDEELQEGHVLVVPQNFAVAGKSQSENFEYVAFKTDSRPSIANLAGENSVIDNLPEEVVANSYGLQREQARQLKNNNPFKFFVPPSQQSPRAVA
Protocol: as §1

[3] = target: T3, Ara h 6 (Arachis hypogaea allergen 6) (Arachis hypogaea, UniProt Q647G9 22-145); experiment: ELISA, antibody titrated on coated Ara h 6
T3 construct: Peanut allergen; also called Ara h 6.0101; nAra h 6
T3 sequence: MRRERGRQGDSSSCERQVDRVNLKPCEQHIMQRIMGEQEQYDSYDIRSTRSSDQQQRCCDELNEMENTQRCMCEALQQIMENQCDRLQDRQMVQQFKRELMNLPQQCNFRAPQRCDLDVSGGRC
Protocol: as §1

B1: 17H9 (antibody, V domains shown)
VH: QVQLEEYGGGVVQPGRSLRLSCVASGSTLGTYGMHWVRQAPGKGLEWVAIISPDGGHQDYADPVRGRFTVSRDNSKNTLYLQMDNLRVEDTAVYYCATTLCARTDCTWVRSDSWGQGTLVTVSS
VL: ANVLTQSPGTLSLSPGERATLSCRASQRVSGDYLAWYQQKRGQAPRLLIYGASSRATGIPDRFSGSGSGTDFTLTISRLEPEDFAVYYCQHYNGPPVTFGQGTKLEIK
notes: Fully human monoclonal antibody, wild-type variable regions; tested as IgG (detected with anti-human IgG); also called MY006-17H9
EC50 [1]: 2.2 ng/mL
EC50 [2]: 7.38 ng/mL

B2: 15E3 (antibody, V domains shown)
VH: EVQLVESGGALVQPGGSLRLSCAASGFKFSTFYMTWIRQAPGKGLEWVANIKQDGSEKDYLDSVRGRFNISRDNAKSVLYLQMNTLSADDTGVYYCTRNGLQDSYSGDFFDHWGQGILVTVSS
VL: QSVLTQPPSISAAPGQKVTISCSGTGSNIGHNYVSWYQQLPRTAPRLLIFDNTKRPSGIPDRFSGSKSGSSATLGITGLQTGDEAHYFCATWDADLSAVLFGGGTKLTVL
notes: Fully human monoclonal antibody, wild-type variable regions; also called MY006-15E3; 15E3-human IgG1
EC50 [1]: 3.78 ng/mL
EC50 [3]: 1.74 ng/mL

Source: US20250320282A1 (MABYLON, published 2025)
